Here are results for nine molecules from article PMC6298698.

Experiment [1] has as its target mouse Slo1 (mSlo1) BK channel α subunit, mbr5 splice variant (mouse).
Experiment [2] shares this target. This is another data set of the same source.

B1: human BK channel β2 subunit C1S (C84S) (natural protein)
chain: MFIWTSGRTSSSYRHDEKRNIYQKIRDHDLLDKRKTVTALKAGEDRAILLGLAMMVCSIMMYFLLGITLLRSYMQSVWTEESQSTLLNASITETFNCSFSCGPDCWKLSQYPCLQVYVNLTSSGEKLLLYHTEETIKINQKCSYIPKCGKNFEESMSLVNVVMENFRKYQHFSCYSDPEGNQKSVILTKLYSSNVLFHSLFWPTCMMAGGVAIVAMVKLTQYLSLLCERIQRINR
In experiment [1], B1 registered an unbinding probability (q), from the non-inactivating offset of currents, inside-out patches of HEK293 cells, 10 μM Ca2+ of 0.48. The experimental rectification ratio Rβ2* of mSlo1+β2(C1S), not corrected for unbinding in experiment [2] is 1.22.

B2: human BK channel β2 subunit C4S (C105S) (natural protein)
chain: MFIWTSGRTSSSYRHDEKRNIYQKIRDHDLLDKRKTVTALKAGEDRAILLGLAMMVCSIMMYFLLGITLLRSYMQSVWTEESQCTLLNASITETFNCSFSCGPDSWKLSQYPCLQVYVNLTSSGEKLLLYHTEETIKINQKCSYIPKCGKNFEESMSLVNVVMENFRKYQHFSCYSDPEGNQKSVILTKLYSSNVLFHSLFWPTCMMAGGVAIVAMVKLTQYLSLLCERIQRINR
With B2, the unbinding probability (q), from the non-inactivating offset of currents, inside-out patches of HEK293 cells, 10 μM Ca2+ in experiment [1] is 0.08.

B3: human BK channel β2 subunit C5S (C113S) (natural protein)
chain: MFIWTSGRTSSSYRHDEKRNIYQKIRDHDLLDKRKTVTALKAGEDRAILLGLAMMVCSIMMYFLLGITLLRSYMQSVWTEESQCTLLNASITETFNCSFSCGPDCWKLSQYPSLQVYVNLTSSGEKLLLYHTEETIKINQKCSYIPKCGKNFEESMSLVNVVMENFRKYQHFSCYSDPEGNQKSVILTKLYSSNVLFHSLFWPTCMMAGGVAIVAMVKLTQYLSLLCERIQRINR
B3 gave an unbinding probability (q), from the non-inactivating offset of currents, inside-out patches of HEK293 cells, 10 μM Ca2+ in experiment [1] of 0.66.

B4: human BK channel β2 subunit C8S (C174S) (natural protein)
chain: MFIWTSGRTSSSYRHDEKRNIYQKIRDHDLLDKRKTVTALKAGEDRAILLGLAMMVCSIMMYFLLGITLLRSYMQSVWTEESQCTLLNASITETFNCSFSCGPDCWKLSQYPCLQVYVNLTSSGEKLLLYHTEETIKINQKCSYIPKCGKNFEESMSLVNVVMENFRKYQHFSSYSDPEGNQKSVILTKLYSSNVLFHSLFWPTCMMAGGVAIVAMVKLTQYLSLLCERIQRINR
B4 gave an unbinding probability (q), from the non-inactivating offset of currents, inside-out patches of HEK293 cells, 10 μM Ca2+ in experiment [1] of 0.38.

B5: human BK channel β2 subunit C6S (C142S) (natural protein)
chain: MFIWTSGRTSSSYRHDEKRNIYQKIRDHDLLDKRKTVTALKAGEDRAILLGLAMMVCSIMMYFLLGITLLRSYMQSVWTEESQCTLLNASITETFNCSFSCGPDCWKLSQYPCLQVYVNLTSSGEKLLLYHTEETIKINQKSSYIPKCGKNFEESMSLVNVVMENFRKYQHFSCYSDPEGNQKSVILTKLYSSNVLFHSLFWPTCMMAGGVAIVAMVKLTQYLSLLCERIQRINR
In experiment [1], B5 came in with an unbinding probability (q), from the non-inactivating offset of currents, inside-out patches of HEK293 cells, 10 μM Ca2+ of 0.41.

B6: human BK channel β2 subunit C3S (C101S) (natural protein)
chain: MFIWTSGRTSSSYRHDEKRNIYQKIRDHDLLDKRKTVTALKAGEDRAILLGLAMMVCSIMMYFLLGITLLRSYMQSVWTEESQCTLLNASITETFNCSFSSGPDCWKLSQYPCLQVYVNLTSSGEKLLLYHTEETIKINQKCSYIPKCGKNFEESMSLVNVVMENFRKYQHFSCYSDPEGNQKSVILTKLYSSNVLFHSLFWPTCMMAGGVAIVAMVKLTQYLSLLCERIQRINR
With B6, in experiment [1], the unbinding probability (q), from the non-inactivating offset of currents, inside-out patches of HEK293 cells, 10 μM Ca2+ is 0.09.

B7: human BK channel β2 subunit C2S (C97S) (natural protein)
chain: MFIWTSGRTSSSYRHDEKRNIYQKIRDHDLLDKRKTVTALKAGEDRAILLGLAMMVCSIMMYFLLGITLLRSYMQSVWTEESQCTLLNASITETFNSSFSCGPDCWKLSQYPCLQVYVNLTSSGEKLLLYHTEETIKINQKCSYIPKCGKNFEESMSLVNVVMENFRKYQHFSCYSDPEGNQKSVILTKLYSSNVLFHSLFWPTCMMAGGVAIVAMVKLTQYLSLLCERIQRINR
In turn, B7 yielded an unbinding probability (q), from the non-inactivating offset of currents, inside-out patches of HEK293 cells, 10 μM Ca2+ in experiment [1] of 0.09. Besides, the experimental rectification ratio Rβ2* of mSlo1+β2(C2S), not corrected for unbinding in experiment [2] was found to be 1.43.

B8: human BK channel β2 subunit C7S (C148S) (natural protein)
chain: MFIWTSGRTSSSYRHDEKRNIYQKIRDHDLLDKRKTVTALKAGEDRAILLGLAMMVCSIMMYFLLGITLLRSYMQSVWTEESQCTLLNASITETFNCSFSCGPDCWKLSQYPCLQVYVNLTSSGEKLLLYHTEETIKINQKCSYIPKSGKNFEESMSLVNVVMENFRKYQHFSCYSDPEGNQKSVILTKLYSSNVLFHSLFWPTCMMAGGVAIVAMVKLTQYLSLLCERIQRINR
In the case of B8, the unbinding probability (q), from the non-inactivating offset of currents, inside-out patches of HEK293 cells, 10 μM Ca2+ in experiment [1] stood at 0.08.

B9: human BK channel β2 subunit (KCNMB2), wild type (natural protein)
chain: MFIWTSGRTSSSYRHDEKRNIYQKIRDHDLLDKRKTVTALKAGEDRAILLGLAMMVCSIMMYFLLGITLLRSYMQSVWTEESQCTLLNASITETFNCSFSCGPDCWKLSQYPCLQVYVNLTSSGEKLLLYHTEETIKINQKCSYIPKCGKNFEESMSLVNVVMENFRKYQHFSCYSDPEGNQKSVILTKLYSSNVLFHSLFWPTCMMAGGVAIVAMVKLTQYLSLLCERIQRINR
B9 gave an unbinding probability (q), from the non-inactivating offset of currents, inside-out patches of HEK293 cells, 10 μM Ca2+ in experiment [1] of 0.07.
